These results are taken from patent publication US20100028370A1 (RAPTOR PHARMACEUTICAL, published 2010).

The test has as its target mLRP/LRPTmMegT mini-receptor (fourth ligand binding and transmembrane domains of LRP1 with the C-terminal … (UniProt Q07954 3293-4444)). Description: cell-based or functional assay.

Sequence of mLRP/LRPTmMegT mini-receptor (fourth ligand binding and transmembrane domains of LRP1 with the C-terminal … (Q07954 3293-4444): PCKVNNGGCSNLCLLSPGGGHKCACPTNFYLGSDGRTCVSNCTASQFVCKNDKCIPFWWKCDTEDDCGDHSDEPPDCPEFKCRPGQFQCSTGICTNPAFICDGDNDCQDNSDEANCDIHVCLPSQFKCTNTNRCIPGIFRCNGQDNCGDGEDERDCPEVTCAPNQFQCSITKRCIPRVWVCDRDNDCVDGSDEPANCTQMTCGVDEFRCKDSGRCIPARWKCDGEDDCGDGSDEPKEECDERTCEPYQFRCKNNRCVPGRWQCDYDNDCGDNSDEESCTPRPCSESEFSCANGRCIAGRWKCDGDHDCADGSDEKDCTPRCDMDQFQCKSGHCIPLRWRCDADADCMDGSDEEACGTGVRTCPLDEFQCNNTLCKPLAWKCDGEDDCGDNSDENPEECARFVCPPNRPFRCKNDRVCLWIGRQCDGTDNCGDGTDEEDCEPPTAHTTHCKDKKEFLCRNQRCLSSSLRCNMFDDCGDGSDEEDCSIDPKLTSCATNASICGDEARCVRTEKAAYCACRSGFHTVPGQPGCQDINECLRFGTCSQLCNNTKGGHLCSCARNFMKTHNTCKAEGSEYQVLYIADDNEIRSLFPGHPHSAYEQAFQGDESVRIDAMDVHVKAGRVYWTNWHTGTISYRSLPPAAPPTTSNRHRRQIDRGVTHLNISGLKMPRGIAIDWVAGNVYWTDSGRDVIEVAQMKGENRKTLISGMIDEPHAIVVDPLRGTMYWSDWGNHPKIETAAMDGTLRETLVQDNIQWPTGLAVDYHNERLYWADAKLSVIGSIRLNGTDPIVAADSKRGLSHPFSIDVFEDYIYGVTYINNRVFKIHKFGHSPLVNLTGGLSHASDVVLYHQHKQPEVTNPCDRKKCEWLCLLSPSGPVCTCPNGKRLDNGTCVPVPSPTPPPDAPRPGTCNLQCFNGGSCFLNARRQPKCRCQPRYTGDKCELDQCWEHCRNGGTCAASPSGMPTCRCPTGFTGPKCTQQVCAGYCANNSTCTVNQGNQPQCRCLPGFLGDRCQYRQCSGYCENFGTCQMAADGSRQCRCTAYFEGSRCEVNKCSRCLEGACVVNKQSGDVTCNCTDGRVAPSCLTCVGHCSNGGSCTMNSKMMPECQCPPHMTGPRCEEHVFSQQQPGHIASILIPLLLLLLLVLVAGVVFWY

B1: receptor-associated protein (RAP) (ligand)
chain: YSREKNQPKPSPKRESGEEFRMEKLNQLWEKAQRLHLPPVRLAELHADLKIQERDELAWKKLKLDGLDEDGEKEARLIRNLNVILAKYGLDGKKDARQVTSNSLSGTQEDGLDDPRLEKLWHKAKTSGKFSGEELDKLWREFLHHKEKVHEYNVLLETLSRTEEIHENVISPSDLSDIKGSVLHSRHTELKEKLRSINQGLDRLRRVSHQGYSTEAEFEEPRVIDLWDLAQSANLTDKELEAFREELKHFEAKIEKHNHYQKQLEIAHEKLRHAESVGDGERVSRSREKHALLEGRTKELGYTVKKHLQDLSGRISRARHNEL
Turning to B1, the “ratio of the apical-to-basolateral to the basolateral-to-apical permeability coefficient of 125I-RAP in MEGt-transfected MDCK cells” value was determined as 460 fold.
